# B1: Plasmodium falciparum glutathione S-transferase (enzyme, UniProt Q8ILQ7 1-211, looked up)
# chain: MGDNIVLYYFDARGKAELIRLIFAYLGIEYTDKRFGVNGDAFVEFKNFKKEKDTPFEQVPILQIGDLILAQSQAIVRYLSKKYNICGESELNEFYADMIFCGVQDIHYKFNNTNLFKQNETTFLNEDLPKWSGYFEKLLKKNHTNNNNDKYYFVGNNLTYADLAVFNLYDDIETKYPSSLKNFPLLKAHNEFISNLPNIKNYITNRKESVY
# notes: Glutathione S-transferase of Plasmodium falciparum (PfGST), recombinant, about 26 kDa on SDS-PAGE; The chain is a homotetramer without GSH and a homodimer at GSH of 0.7 mM or more, so copies is left empty; also called PfGST; recombinant PfGST; source: E. coli M15, purified (Ni-NTA agarose)
# Columns and labels:
# [1] = target: human GST (human) (UniProt P09211); test: SEC; Superdex 200 10/300 GL, 100 mM potassium phosphate pH 8.0, 1 mM EDTA, 0.3 mL/min, 25°C; incubated and run without GSH
# [2] = target: human GST (human) (UniProt P09211); test: SEC; Superdex 200 10/300 GL, 100 mM potassium phosphate pH 8.0, 1 mM EDTA, 25°C; incubated and run with GSH at 0.7 mM or more (2 mM GSH in Figures 1B and 3)
# [3] = target: human GST (human) (UniProt P09211); test: cross-linking; 1% glutaraldehyde, 30 min, room temperature, protein 50 μg/mL, 10% SDS-PAGE; sample incubated with GSH
# [4] = target: human GST (human) (UniProt P09211); test: cross-linking; 1% glutaraldehyde, 30 min, room temperature, protein 50 μg/mL, 10% SDS-PAGE; sample without GSH
# [5] = target: the molecule itself; test: SEC; GSH-stabilized dimer dialysed for 4 h against buffer without GSH, then loaded on the column
# [6] = target: the molecule itself; test: SEC; Superdex 200 10/300 GL, 100 mM potassium phosphate pH 8.0, 1 mM EDTA, 0.3 mL/min, 25°C; incubated and run without GSH
# [7] = target: the molecule itself; test: SEC; Superdex 200 10/300 GL, 100 mM potassium phosphate pH 8.0, 1 mM EDTA, 25°C; incubated and run with GSH at 0.7 mM or more (2 mM GSH in Figures 1B and 3)
Molecule,stoichiometry N [1],stoichiometry N [2],stoichiometry N [3],stoichiometry N [4],ratio of dimer to tetramer [5],stoichiometry N [6],stoichiometry N [7]
human GST (from UniProt P09211 1-210) (enzyme),2,2,2,2,,,
B1,,,,,~0.33 dimer:tetramer,4,2

# — paper PMC2110890, “Glutathione mediated regulation of oligomeric structure and functional activity of Plasmodium falciparum glutathione S-transferase” (BMC Structural Biology, 2007)
